{"source": "patent US20220041721A1", "about": "(WUHAN YZY BIOPHARMA, published 2022)", "key": {"[1]": {"target": "T1, monkey CD3 (monkey)", "T1 construct": "whole, on cells; also called CD3 on monkey CD3 positive T cells", "experiment": "flow cytometry on monkey CD3 positive T cells"}, "[2]": {"target": "T2, Human CD38 (human, UniProt P28907 1-300)", "T2 construct": "whole, on cells; the assays used the protein on tumor cells", "experiment": "flow cytometry on CD38 positive tumor cells (MM.1S or RPMI 8226)"}, "[3]": {"target": "T3, human CD3 (human, UniProt P07766 23-207)", "T3 construct": "whole, on cells; Assays used CD3 positive T cells (or CIK cells) from human blood; also called Human CD3ϵ; CD3 on human CD3 positive T cells", "experiment": "flow cytometry on human CD3 positive T cells"}, "[4]": {"target": "T3, human CD3", "experiment": "cell-based or functional assay"}}, "data": [{"binder": "Y150-F9-11 (bispecific antibody, human IgG1, kappa, Anti-CD38 (MOR) Fab arm with CL Lc1 and anti-CD3 scFv (VH2a/VL5)-Fc fusion peptide) scFv: QVQLVESGGGVVQPGRSLRLSCAASGFTFSTYAMNWVRQAPGKGLEWVARIRSKYNNYATYYADSVKDRFTISRDDSKNTLYLQMNSLRAEDTAVYYCARHGNFGNSYVSWFAYWGQGTLVTVSSGGGGSGGGGSGGGGSQTVVTQEPSLTVSPGGTVTLTCRSSTGAVTTSNYANWVQQKPGQAPRGLIGGTNKRAPGVPARFSGSLLGGKAALTLSGVQPEDEAEYYCALWYSNLWVFGGGTKVEIKGRGRGSDKTHTCPPSPAPPVAGPSVFLFPPKPKDTLMISRTPEVTCVVVDVSHEDPEVQFNWYVDGVEVHNAKTKPREEQFNSTFRVVSVLTVVHQDWLNGKEYKCKVSNKGLPAPIEKTISKTKGQPREPQVCTLPPSRDELTKNQVSLSCAVKGFYPSDIAVEWESNGQPENNYKTTPPVLDSDGSFFLVSKLTVDKSRWQQGNVFSCSVMHEALHNHYTQKSLSLSPGK heavy: not shown light: DIELTQPPSVSVAPGQTARISCSGDNLRHYYVYWYQQKPGQAPVLVIYGDSKRPSGIPERFSGSNSGNTATLTISGTQAEDEADYYCQTYTGGASLVFGGGTKLTVLRTVAAPSVFIFPPSDEQLKSGTASVVCLLNNFYPREAKVQWKVDNALQSGNSQESVTEQDSKDSTYSLSSTLTLSKADYEKHKVYACEVTHQGLSSPVTKSFNRGEC", "values": [{"measurement": "EC50", "setting": "[1]", "value": 461, "unit": "nM"}, {"measurement": "EC50", "setting": "[2]", "value": 106, "unit": "nM"}, {"measurement": "EC50", "setting": "[3]", "value": 437, "unit": "nM"}, {"measurement": "EC50 values of T-cell activation (CD3 and CD69 dual positive cells; human PBMC with MC/CAR target cells 5:1, 48 h)", "setting": "[4]", "value": 0.0835, "unit": "nM"}]}]}
